{
  "source": "IntAct's records for PubMed 21059944",
  "parents": {"B1": {"name": "Tumor necrosis factor receptor superfamily member 11A (Mus musculus), O35305 (parent)", "chain": "MAPRARRRRQLPAPLLALCVLLVPLQVTLQVTPPCTQERHYEHLGRCCSRCEPGKYLSSKCTPTSDSVCLPCGPDEYLDTWNEEDKCLLHKVCDAGKALVAVDPGNHTAPRRCACTAGYHWNSDCECCRRNTECAPGFGAQHPLQLNKDTVCTPCLLGFFSDVFSSTDKCKPWTNCTLLGKLEAHQGTTESDVVCSSSMTLRRPPKEAQAYLPSLIVLLLFISVVVVAAIIFGVYYRKGGKALTANLWNWVNDACSSLSGNKESSGDRCAGSHSATSSQQEVCEGILLMTREEKMVPEDGAGVCGPVCAAGGPWAEVRDSRTFTLVSEVETQGDLSRKIPTEDEYTDRPSQPSTGSLLLIQQGSKSIPPFQEPLEVGENDSLSQCFTGTESTVDSEGCDFTEPPSRTDSMPVSPEKHLTKEIEGDSCLPWVVSSNSTDGYTGSGNTPGEDHEPFPGSLKCGPLPQCAYSMGFPSEAAASMAEAGVRPQDRADERGASGSGSSPSDQPPASGNVTGNSNSTFISSGQVMNFKGDIIVVYVSQTSQEGPGSAEPESEPVGRPVQEETLAHRDSFAGTAPRFPDVCATGAGLQEQGAPRQKDGTSRPVQEQGGAQTSLHTQGSGQCAE"}},
  "data": [
    {"variants_of": "B1", "conditions": "with Tnfsf11, O35235-1", "values": [
      {"variant": "E126A", "effect of a mutation on the interaction": "disrupting interaction"},
      {"variant": "G54R", "effect of a mutation on the interaction": "disrupting interaction"},
      {"variant": "K171G", "effect of a mutation on the interaction": "disrupting interaction"},
      {"variant": "C127A", "effect of a mutation on the interaction": "disrupting interaction"},
      {"variant": "D85A", "effect of a mutation on the interaction": "decreasing interaction"},
      {"variant": "K97A", "effect of a mutation on the interaction": "disrupting interaction"}
    ]}
  ]
}
